From patent publication CN107773755A

Key:
抗体BA03-A [1] = assay: binding ELISA on coated BA03-A, relative activity vs reference; formulation F8 after 8 weeks at 40 C
抗体BA03-A [2] = assay: binding ELISA on coated BA03-A, relative activity vs reference; formulations F1-F11 at T0
抗体BA03-A [3] = assay: binding ELISA on coated BA03-A, relative activity vs reference; formulation F7 after 8 weeks at 40 C
抗体BA03-A [4] = assay: binding ELISA on coated BA03-A, relative activity vs reference; formulations after 8 weeks at 2-8 C
抗体BA03-A [5] = assay: binding ELISA on coated BA03-A, relative activity vs reference; formulations after 4 weeks at 40 C
抗体BA03-A [6] = assay: binding ELISA on coated BA03-A, relative activity vs reference; formulation F3 after 8 weeks at 40 C

B1: 抗体BA03 (重组人源化抗表皮生长因子受体单克隆抗体) (antibody, V domains shown)
VH: QVQLQESGPGLVKPSETLSLTCTVSGFSLSNYDVHWVRQAPGKGLEWLGVIWSGGNTDYNTPFTSRLTISVDTSKNQFSLKLSSVTAADTAVYYCARALDYYDYEFAYWGQGTLVTVSS
VL: EIVLTQSPDFQSVTPKEKVTITCRASQSIGTNIHWYQQKPDQSPKLLIKYASESISGIPSRFSGSGSGTDFTLTINSLEAEDAATYYCQQNNEWPTSFGQGTKLEIK
活性 (Binding elisa, % relative to the reference) (抗体BA03-A [1]): 91.7%
生物活性 (Binding elisa, % relative to the reference) (抗体BA03-A [2]): 97.1 to 105%
活性 (Binding elisa, % relative to the reference) (抗体BA03-A [3]): 55.2%
结合活性 (Binding elisa, % relative to the reference) (抗体BA03-A [4]): 93.3 to 111%
生物活性 (Binding elisa, % relative to the reference) (抗体BA03-A [5]): 47.3 to 102%
活性 (Binding elisa, % relative to the reference) (抗体BA03-A [6]): 89.7%
